Measurements reported in the array DNA melting data of Ke et al..

Test: melting temperature; melt of duplexes
Details: sodium 0.0675 M; strand 1 µM

Substance	Tm [°C]
CGACGTGCCCCATGTGCTG+CAGCACATAGCGCACGTCG ((((((((.(.((((((((+)))))))).).))))))))	47.3
CGACGTGCCTCATGTGCTG+CAGCACATCCAGCACGTCG ((((((((...((((((((+))))))))...))))))))	47.4
CGACGTGCGAGATGTGCTG+CAGCACATCACGCACGTCG (((((((((.(((((((((+))))))))).)))))))))	61.4
CGACGTGCTAGATGTGCTG+CAGCACATGGGGCACGTCG ((((((((...((((((((+))))))))...))))))))	51
CGACGTGCTAAATGTGCTG+CAGCACATGGCGCACGTCG ((((((((...((((((((+))))))))...))))))))	51.2
CGACGTGCGCCATGTGCTG+CAGCACATTAAGCACGTCG ((((((((...((((((((+))))))))...))))))))	52.1
CGACGTGCGGCATGTGCTG+CAGCACATCCAGCACGTCG ((((((((.(.((((((((+)))))))).).))))))))	53.9
CGACGTGCTCAATGTGCTG+CAGCACATTCGGCACGTCG ((((((((..(((((((((+)))))))))..))))))))	51.2
CGACGTGCCATATGTGCTG+CAGCACATAACGCACGTCG ((((((((..(((((((((+)))))))))..))))))))	49.1
CGACGTGCCATATGTGCTG+CAGCACATTCTGCACGTCG ((((((((...((((((((+))))))))...))))))))	48.8
CGACGTGCTTAATGTGCTG+CAGCACATCAAGCACGTCG ((((((((((.((((((((+)))))))).))))))))))	55
CGACGTGCCAGATGTGCTG+CAGCACATGGGGCACGTCG (((((((((..((((((((+))))))))..)))))))))	56.3
CGACGTGCCTCATGTGCTG+CAGCACATGTGGCACGTCG (((((((((.(((((((((+))))))))).)))))))))	59.8
CGACGTGCGGGATGTGCTG+CAGCACATGACGCACGTCG (((((((((..((((((((+))))))))..)))))))))	57.6
CGACGTGCGACATGTGCTG+CAGCACATACTGCACGTCG ((((((((...((((((((+))))))))...))))))))	49.9
CGACGTGCCGTATGTGCTG+CAGCACATGTTGCACGTCG ((((((((...((((((((+))))))))...))))))))	48.3
CGACGTGCTCGATGTGCTG+CAGCACATAGGGCACGTCG ((((((((.(.((((((((+)))))))).).))))))))	55.4
CGACGTGCAATATGTGCTG+CAGCACATGAGGCACGTCG ((((((((...((((((((+))))))))...))))))))	51.3
CGACGTGCTCTATGTGCTG+CAGCACATAAGGCACGTCG ((((((((..(((((((((+)))))))))..))))))))	52.2
CGACGTGCTATATGTGCTG+CAGCACATATTGCACGTCG ((((((((.((((((((((+)))))))))).))))))))	56
CGACGTGCTCAATGTGCTG+CAGCACATAGGGCACGTCG ((((((((.(.((((((((+)))))))).).))))))))	52.8
CGACGTGCGTAATGTGCTG+CAGCACATACGGCACGTCG ((((((((...((((((((+))))))))...))))))))	52.6
CGACGTGCAGCATGTGCTG+CAGCACATGGAGCACGTCG ((((((((..(((((((((+)))))))))..))))))))	54.1
CGACGTGCCCTATGTGCTG+CAGCACATACGGCACGTCG (((((((((.(((((((((+))))))))).)))))))))	53.5
CGACGTGCGGCATGTGCTG+CAGCACATAAAGCACGTCG ((((((((...((((((((+))))))))...))))))))	56
CGACGTGCTAAATGTGCTG+CAGCACATAGAGCACGTCG (((((((((..((((((((+))))))))..)))))))))	52.9
CGACGTGCACAATGTGCTG+CAGCACATAGGGCACGTCG ((((((((.(.((((((((+)))))))).).))))))))	53
CGACGTGCATAATGTGCTG+CAGCACATCGGGCACGTCG ((((((((...((((((((+))))))))...))))))))	48.2
